Source: patent US11906524B2, “Urea biosensors and uses thereof” (Duke University, priority 2015, dated 2024)

Experiment: Urea titration of emission intensity spectra (Nanodrop3300) with ratiometric analysis, singly labeled conjugates
Type: binding
Excerpt: Determination of emission intensity spectra.
Ratiometric analysis of urea binding. […] 2
For a single urea-binding site, the fractional saturation is given by
[formula] where [L] is the ligand (urea) concentration and Kd the dissociation constant, ^trueKd for ytrue.
[formula] where ^appIλ2 and ^satIλ2 are the emission intensities of the monochromatic signal at wavelength λ2 of the ligand-free and ligand-bound protein, respectively.

[1] = mutation in the csUBP7 186C·Acrylodan conjugate

| Molecule | effect of mutation on urea affinity [1] | also measured |
| --- | --- | --- |
| Oregon Green | – | monochromatic intensity change (fluorophore conjugated to csUBP7 186C variant with Q114A, increase on urea): ~2 fold; Kd (fluorophore conjugated to csUBP7 186C, Q114A, fit of equation 1 to the monochromatic emission intensities, Nanodrop3300, read-out: trueKd (urea)): 300 µM |
| Texas Red | – | trueKd (urea) (fluorophore conjugated to csUBP7 186C, Q114A, fit of equation 1 to the monochromatic emission intensities, Nanodrop3300): n/b |
| N211A: csUBP7 186C, 211A mutant (SEQ ID NO: 82), tested as Acrylodan conjugate (conjugate, Acrylodan conjugate; csUBP7_186C.28 (186C, 211A substitution mutant, signal peptide replaced with M and a GGSHHHHHH at C-terminus, and also comprising a C89A substitution)) MSSSESEKEKSEETIKVGILHSLSGTMSISEVSLKDAELMAIEEINNNGGVLGKKLEPIVEDGASDWPTFAEKAKKLLQKDKVAVIFGAWTSASRKAVLPVVEENNGLLFYPVQYEGLESSPNIFYMGAAPNQQIVPAVKWLFDNGKKRFYLLGSDYVFPRTANKIIKAYLKYLGGVVVGEEYTPCGHTDYSSVINKIKAAKPDVVFNTLAGDSNVAFFKQLKDAGIDANTLPVMSVSIAEEEIKGIGPEYLKGHLVTWNYFQSVDTPENKEFVEKYKKKYGEDRVTDDPIEAAYIGVYLWAKAVEKAGSTDVDKVREAAKGIEFNAPEGPVKIDGDNQHLYKTVRIGEILENGQIRELWKTNKPVKPDPYLKGYEWAQGLSEQGGSHHHHHH | nearly abolishes binding | – |
| S92A: csUBP7 186C, S92A mutant (SEQ ID NO: 65), tested as Acrylodan conjugate (conjugate, Acrylodan conjugate; csUBP7_186C.11 (186C, S92A substitution mutant, signal peptide replaced with M and a GGSHHHHHH at C-terminus, and also comprising a C89A substitution)) MSSSESEKEKSEETIKVGILHSLSGTMSISEVSLKDAELMAIEEINNNGGVLGKKLEPIVEDGASDWPTFAEKAKKLLQKDKVAVIFGAWTAASRKAVLPVVEENNGLLFYPVQYEGLESSPNIFYMGAAPNQQIVPAVKWLFDNGKKRFYLLGSDYVFPRTANKIIKAYLKYLGGVVVGEEYTPCGHTDYSSVINKIKAAKPDVVFNTLNGDSNVAFFKQLKDAGIDANTLPVMSVSIAEEEIKGIGPEYLKGHLVTWNYFQSVDTPENKEFVEKYKKKYGEDRVTDDPIEAAYIGVYLWAKAVEKAGSTDVDKVREAAKGIEFNAPEGPVKIDGDNQHLYKTVRIGEILENGQIRELWKTNKPVKPDPYLKGYEWAQGLSEQGGSHHHHHH | abolishes binding | – |
| N211E: csUBP7 186C, 211E mutant (SEQ ID NO: 86), tested as Acrylodan conjugate (conjugate, Acrylodan conjugate; csUBP7_186C.32 (186C, 211E substitution mutant, signal peptide replaced with M and a GGSHHHHHH at C-terminus, and also comprising a C89A substitution)) MSSSESEKEKSEETIKVGILHSLSGTMSISEVSLKDAELMAIEEINNNGGVLGKKLEPIVEDGASDWPTFAEKAKKLLQKDKVAVIFGAWTSASRKAVLPVVEENNGLLFYPVQYEGLESSPNIFYMGAAPNQQIVPAVKWLFDNGKKRFYLLGSDYVFPRTANKIIKAYLKYLGGVVVGEEYTPCGHTDYSSVINKIKAAKPDVVFNTLEGDSNVAFFKQLKDAGIDANTLPVMSVSIAEEEIKGIGPEYLKGHLVTWNYFQSVDTPENKEFVEKYKKKYGEDRVTDDPIEAAYIGVYLWAKAVEKAGSTDVDKVREAAKGIEFNAPEGPVKIDGDNQHLYKTVRIGEILENGQIRELWKTNKPVKPDPYLKGYEWAQGLSEQGGSHHHHHH | weakens affinity | – |
| V113T: csUBP7 186C, 113T mutant (SEQ ID NO: 70), tested as Acrylodan conjugate (conjugate, Acrylodan conjugate; csUBP7_186C.16 (186C, 113T substitution mutant, signal peptide replaced with M and a GGSHHHHHH at C-terminus, and also comprising a C89A substitution)) MSSSESEKEKSEETIKVGILHSLSGTMSISEVSLKDAELMAIEEINNNGGVLGKKLEPIVEDGASDWPTFAEKAKKLLQKDKVAVIFGAWTSASRKAVLPVVEENNGLLFYPTQYEGLESSPNIFYMGAAPNQQIVPAVKWLFDNGKKRFYLLGSDYVFPRTANKIIKAYLKYLGGVVVGEEYTPCGHTDYSSVINKIKAAKPDVVFNTLNGDSNVAFFKQLKDAGIDANTLPVMSVSIAEEEIKGIGPEYLKGHLVTWNYFQSVDTPENKEFVEKYKKKYGEDRVTDDPIEAAYIGVYLWAKAVEKAGSTDVDKVREAAKGIEFNAPEGPVKIDGDNQHLYKTVRIGEILENGQIRELWKTNKPVKPDPYLKGYEWAQGLSEQGGSHHHHHH | only a small effect | – |
| V113A: csUBP7 186C, 113A mutant (SEQ ID NO: 69), tested as Acrylodan conjugate (conjugate, Acrylodan conjugate; csUBP7_186C.15 (186C, 113A substitution mutant, signal peptide replaced with M and a GGSHHHHHH at C-terminus, and also comprising a C89A substitution)) MSSSESEKEKSEETIKVGILHSLSGTMSISEVSLKDAELMAIEEINNNGGVLGKKLEPIVEDGASDWPTFAEKAKKLLQKDKVAVIFGAWTSASRKAVLPVVEENNGLLFYPAQYEGLESSPNIFYMGAAPNQQIVPAVKWLFDNGKKRFYLLGSDYVFPRTANKIIKAYLKYLGGVVVGEEYTPCGHTDYSSVINKIKAAKPDVVFNTLNGDSNVAFFKQLKDAGIDANTLPVMSVSIAEEEIKGIGPEYLKGHLVTWNYFQSVDTPENKEFVEKYKKKYGEDRVTDDPIEAAYIGVYLWAKAVEKAGSTDVDKVREAAKGIEFNAPEGPVKIDGDNQHLYKTVRIGEILENGQIRELWKTNKPVKPDPYLKGYEWAQGLSEQGGSHHHHHH | weakens binding significantly | – |
| V113Q: csUBP7 186C, 113Q mutant (SEQ ID NO: 72), tested as Acrylodan conjugate (conjugate, Acrylodan conjugate; csUBP7_186C.18 (186C, 113Q substitution mutant, signal peptide replaced with M and a GGSHHHHHH at C-terminus, and also comprising a C89A substitution)) MSSSESEKEKSEETIKVGILHSLSGTMSISEVSLKDAELMAIEEINNNGGVLGKKLEPIVEDGASDWPTFAEKAKKLLQKDKVAVIFGAWTSASRKAVLPVVEENNGLLFYPQQYEGLESSPNIFYMGAAPNQQIVPAVKWLFDNGKKRFYLLGSDYVFPRTANKIIKAYLKYLGGVVVGEEYTPCGHTDYSSVINKIKAAKPDVVFNTLNGDSNVAFFKQLKDAGIDANTLPVMSVSIAEEEIKGIGPEYLKGHLVTWNYFQSVDTPENKEFVEKYKKKYGEDRVTDDPIEAAYIGVYLWAKAVEKAGSTDVDKVREAAKGIEFNAPEGPVKIDGDNQHLYKTVRIGEILENGQIRELWKTNKPVKPDPYLKGYEWAQGLSEQGGSHHHHHH | – | fold stronger affinity than either V113N or V113H [1]: 10 fold |
| Q114E: csUBP7 186C, 114E mutant (SEQ ID NO: 76), tested as Acrylodan conjugate (conjugate, Acrylodan conjugate; csUBP7_186C.22 (186C, 114E substitution mutant, signal peptide replaced with M and a GGSHHHHHH at C-terminus, and also comprising a C89A substitution)) MSSSESEKEKSEETIKVGILHSLSGTMSISEVSLKDAELMAIEEINNNGGVLGKKLEPIVEDGASDWPTFAEKAKKLLQKDKVAVIFGAWTSASRKAVLPVVEENNGLLFYPVEYEGLESSPNIFYMGAAPNQQIVPAVKWLFDNGKKRFYLLGSDYVFPRTANKIIKAYLKYLGGVVVGEEYTPCGHTDYSSVINKIKAAKPDVVFNTLNGDSNVAFFKQLKDAGIDANTLPVMSVSIAEEEIKGIGPEYLKGHLVTWNYFQSVDTPENKEFVEKYKKKYGEDRVTDDPIEAAYIGVYLWAKAVEKAGSTDVDKVREAAKGIEFNAPEGPVKIDGDNQHLYKTVRIGEILENGQIRELWKTNKPVKPDPYLKGYEWAQGLSEQGGSHHHHHH | improves binding by an order of magnitude | – |
